In patent publication US20070254313A1, “Gnal Splice Variant and Uses Thereof” (AstraZeneca AB, priority 2003, published 2007):

Assays:
[1] = molecular target: human dopamine D1A receptor (human) (UniProt P21728); test: cell-based or functional assay
[2] = molecular target: human adenosine A2a receptor (ADORA2A) (human) (UniProt P29274); test: cell-based or functional assay
Chain of human adenosine A2a receptor (ADORA2A) (human) (P29274 whole entry): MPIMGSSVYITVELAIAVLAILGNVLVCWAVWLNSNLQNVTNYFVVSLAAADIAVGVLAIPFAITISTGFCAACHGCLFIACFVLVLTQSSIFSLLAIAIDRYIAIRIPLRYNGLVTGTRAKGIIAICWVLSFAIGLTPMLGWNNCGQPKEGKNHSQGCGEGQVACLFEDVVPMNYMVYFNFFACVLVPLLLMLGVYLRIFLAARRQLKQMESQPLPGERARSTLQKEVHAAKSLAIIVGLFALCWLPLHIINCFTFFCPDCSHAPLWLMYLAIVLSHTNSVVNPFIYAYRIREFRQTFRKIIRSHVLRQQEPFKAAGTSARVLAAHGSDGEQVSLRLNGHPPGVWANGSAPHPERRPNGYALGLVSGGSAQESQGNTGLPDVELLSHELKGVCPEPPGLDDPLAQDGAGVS

Chain of human Golf protein (P38405 2-381 limits assumed): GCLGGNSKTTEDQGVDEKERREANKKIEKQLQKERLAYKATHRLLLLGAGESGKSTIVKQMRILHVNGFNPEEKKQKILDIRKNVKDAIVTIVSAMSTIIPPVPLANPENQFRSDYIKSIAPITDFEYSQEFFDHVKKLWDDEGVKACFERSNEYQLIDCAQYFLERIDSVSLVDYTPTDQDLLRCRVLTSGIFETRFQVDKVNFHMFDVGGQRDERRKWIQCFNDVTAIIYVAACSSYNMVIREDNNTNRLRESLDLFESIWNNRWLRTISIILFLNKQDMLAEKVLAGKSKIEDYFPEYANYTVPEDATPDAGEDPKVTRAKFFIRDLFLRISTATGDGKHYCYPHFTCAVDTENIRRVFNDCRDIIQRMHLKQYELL
Chain of human dopamine D1A receptor (human) (P21728 whole entry): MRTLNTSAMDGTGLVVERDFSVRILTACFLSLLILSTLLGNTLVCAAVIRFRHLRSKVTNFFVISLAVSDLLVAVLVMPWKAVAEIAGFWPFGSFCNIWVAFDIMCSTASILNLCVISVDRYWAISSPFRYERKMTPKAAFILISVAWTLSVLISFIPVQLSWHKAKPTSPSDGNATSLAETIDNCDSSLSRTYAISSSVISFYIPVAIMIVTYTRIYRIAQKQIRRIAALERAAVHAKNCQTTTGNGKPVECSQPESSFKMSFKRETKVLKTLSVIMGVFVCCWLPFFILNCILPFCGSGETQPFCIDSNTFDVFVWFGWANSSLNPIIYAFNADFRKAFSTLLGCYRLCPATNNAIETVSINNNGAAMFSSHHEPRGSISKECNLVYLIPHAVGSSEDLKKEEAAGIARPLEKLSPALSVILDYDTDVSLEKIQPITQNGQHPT

Q: Which efficacy (Emax) of dopamine-induced [35S]-GTPγS binding, membranes of Sf9 cells co-expressing DRD1 and Golf [1] does the source give for “human Golf protein (from UniProt P38405 2-381)” here?
A: 231%

Q: And the induction of GTPγS agonist signal, A2a receptor co-expressed with Golf in Sf9 cells [2]?
A: 0.2
